Data on 3 molecules can be found in US11988675B2, “Methods for quantifying frataxin activity” (Larimar Therapeutics, Inc., priority 2019, dated 2024).

Read-outs that look alike come from different tables or passages of the source.

Data set [1] deals with T1, FXN fusion protein (Homo sapiens, UniProt Q16595).
T1 sequence (Q16595 with tags, fused parts or gaps): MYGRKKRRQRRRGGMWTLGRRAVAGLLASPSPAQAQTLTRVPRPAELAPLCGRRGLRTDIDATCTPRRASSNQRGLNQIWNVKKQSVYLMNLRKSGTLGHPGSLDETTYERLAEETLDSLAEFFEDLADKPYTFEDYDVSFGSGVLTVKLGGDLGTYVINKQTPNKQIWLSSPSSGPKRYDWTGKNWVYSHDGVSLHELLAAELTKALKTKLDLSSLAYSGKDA
Put plainly: HQ assay in the presence of NADH or NADPH (FIG. 3, Panel B). To be noted: added to the assay with Fe^3+. The data set is classed as biochemical. As to the method:
Redox activity of the FXN fusion protein was also measured in the presence of NADPH and NADH.

A short description of data set [2]: Chemical stability study: HQ assay after chemical stress. The data set is classed as biochemical. The protocol: The goal of this experiment was to evaluate stability to chemical stress of an exemplary FXN fusion protein by evaluating the activity of the exemplary FXN fusion protein after its exposure to chemical stressors that may trigger protein denaturation and/or degradation of the FXN fusion protein.
Briefly, study control was stored at 2-8° C. over the course of the study. Each treatment was conducted as follows:
i. Acid treatment: 1N HCl was added to the solution containing FXN fusion protein until a pH≤4 was reached. The sample was kept at 37° C. for 2 days, and then the buffer exchanged for the buffer of the DS formulation. The sample was stored at 2-8° for the remainder of the study.
ii. Alkaline treatment: 1M Tris base was added to the solution containing FXN fusion protein until a pH≥10 was reached. The sample was kept at 37° C. for 2 days, and then the buffer was exchanged for the buffer of the DS formulation. The sample was stored at 2-8° C.
iii. Acid and Base control: solution containing FXN fusion protein was stored at 37° C. for 2 days, and then stored at 2-8° C.
iv. Oxidation stress treatment: exemplary FXN fusion protein was incubated in the presence of 0.05% hydrogen peroxide at 37° C. for 2 hours and then stored at 2-8° C.
v. Oxidation control: exemplary FXN fusion protein was incubated at 37° C. for 2 hours and then stored at 2-8° C.
vi. Heat stress treatment: exemplary FXN fusion protein was incubated at 50° for 2 hours then stored at 2-8° C.
All samples were analyzed for appearance, pH, protein quantification (by A280), size-exclusion ultra-performance liquid chromatography (SE-UPLC), reversed-phase high-performance liquid chromatography (RP-HPLC), ion-exchange high-performance liquid chromatography (IE-HPLC), reduced capillary electrophoresis sodium dodecyl sulfate (rCE-SDS), non-reduced capillary electrophoresis sodium dodecyl sulfate (nrCE-SDS), and free thiol (data not shown). The concentration of FXN fusion protein was determined by Western blot, and redox activity was determined using the HQ assay as described above.

On data set [3], the source says:
The goal of the first part of the experiment was to validate performance of the HQ assay at the conditions used for the HTS. To this end, the HQ assay was characterized by measuring statistical parameters, such as signal-to-background (S/B) ratio, Z′ factor (which is a measure of the statistical robustness of the assay readout), and intra- and inter-plate variability. To this end, two 96-well plates were each split into 9 sections: 4 sections in each plate contained an exemplary FXN fusion protein at the concentration of 10 μM (high control); 4 sections contained the exemplary FXN fusion protein at the concentration of 0.5 μM (low control); and 1 section contained only the assay mix without the FXN fusion protein (blank control).
H2DCF was activated by incubating in the dark 1 mL of 1 mM H2DCF-DA in 20 mL of 0.01 M NaOH for 30 minutes while stirring. Subsequently, 75 mL of 33 mM NaH2PO4 was added to the activation mixture to yield a final H2DCF concentration of 10 μM. This solution was stored at 4° C. and protected from light until use. The assay mix in each well contained 50 mM Tris-HCL (pH 8.0), 50 μM HQ, 1 μM MnCl2, 0.5 μM activated H2DCF and the exemplary FXN fusion protein at the concentration of 10 μM (high control), 0.5 μM (low control) and 0 μM (blank control). After the assay mix was added to the plate, the plate was immediately placed in the plate reader, and the kinetic read was initiated. The plate reader settings were as follows: 45-minute kinetic scan with a Fluorescent read (excitation 482/20, emission 530/25, and a gain of 50) every minute with a 3 second shake in between reads. Maximum initial velocity (Vi) was determined for each well by measuring the fastest change in arbitrary fluorescence unit (AFU) over 5 data points. The statistical parameters, such as signal-to-background (S/B) ratio, Z′ factor, and intra- and inter-plate variability were calculated to characterize the assay performance.

Data set [4] can be described thus: Temperature stability study: HQ assay after one month storage. The data set is classed as biochemical. The protocol: The goal of this experiment was to evaluate thermal stability of an exemplary FXN fusion protein by evaluating the activity of the FXN fusion protein after short-term storage (one month) at different temperatures.
(SPL1), 2-4° C. (SPL2) and 25° C. (SPL3), as compared to the DS control. […] (SPL1), 2-4° C. (SPL2) and 25° C. (SPL3), as compared to the DS control.

The conditions of data set [5]: in the presence and absence of metal ions; FIG. 1.
Experimental: Protocol for Hydroquinone (HQ) Reduction Assay
a. 1 ml of 1 mM H2DCFDA (in DMSO) is added to 20 mL of 0.01 M NaOH working solution to generate the activating solution. The solution is stirred for 30 minutes at room temperature in the dark.
b. 79 mL of 33 mM NaH2PO4 solution is added to the activating solution to yield a final concentration of 10 μM H2DCF.
b. Excitation and emission reading of the plate is performed every minute, or as required, with a spectrometer set for the following parameters: excitation at 485/20, emission at 528/20, optics from the top, a read height of 1 mm, and a gain of 50.
To each well add: • i. 10 μL of 20× Hydroquinone (to 20 μM final concentration) • ii. 10 μL of 20×Mn^2 (5 μM final concentration)
b. Tris Buffer Addition • i. FXN protein sample well: 168 μL • ii.
b. 10 μL of H2DCF (10 μM working solution) is added to every well (except the DCF standard curve) to arrive at a final concentration of 0.5 μM H2DCF.
b. […] Velocity calculated on 5 points; • 3. Relative fluorescence units (RFU) per minute. • ii. Vi generated from the fluorescence scanner is plotted on a scatter plot • 1. […]
c. […] The line should go through 0,0, and the slope recorded. […]
Generation of ROS, i.e., superoxide, was detected using an ROS detector compound, such as for example, 2′,7′-dichlorodihydrofluorescein (H2DCF), and was followed kinetically, as shown in Panel A of FIG. 1. […]
For data set [6], the system named is FDRA mouse model. Put plainly: Treatment of an FDRA mouse model. The data set is classed as in vivo. The settings on record: data not shown. The text has this:
(§1) FXN fusion protein having the amino acid sequence of SEQ ID NO: 12 comprises a cell penetrating peptide, HIV-TAT (SEQ ID NO: 4), and a full length hFXN (SEQ ID NO: 1), linked through a linker at the N-terminus of the hFXN.

The conditions of data set [7]: in the absence of Fe^3+; 10 μM FXN fusion protein, 10 μM HQ, 5 μM H2DCF.
Experimental: In another experiment, the effect of the presence of Fe^3+ ions on the activity of an exemplary FXN fusion protein was studied. In this experiment, the kinetics of ROS generated over time was measured in assay mixtures containing 10 μM exemplary FXN fusion protein, 10 μM HQ, and 5 μM H2DCF. One assay mixture also contained 1 mM deferoxamine, an iron chelator.
For data set [8] the following is noted: 10 μM FXN fusion protein, 5 μM HQ, 5 μM Fe(III) sulfate. As to the method:
The goal of this experiment was to evaluate pH dependence of HQ-dependent superoxide generating activity of an exemplary FXN fusion protein. FXN fusion protein of SEQ ID NO: 12 was used in this experiment. Specifically, kinetics of superoxide generation by an exemplary FXN fusion protein was evaluated at pHs ranging from 7.0 to 9.0. Each reaction mixture contained 5 μM HQ, 5 μM Fe(III) sulfate, 0.05 μM H2DCF and 10 μM exemplary FXN fusion protein in 50 mM Tris-HCL at pH of 7.0, 7.4, 7.8, 8.0, 8.2, 8.5 and 9.0.
The assay plate was placed in the plate reader and the kinetic read began immediately after all assay ingredients were mixed together. The plate reader settings were as follows: 2-hour kinetic scan with a Fluorescent read (excitation 485/20, emission 528/25, and a gain of 50) every 5-minutes with a 10 second shake between reads. Maximum initial velocity (Vi) was determined for each well by measuring fastest change in arbitrary fluorescence unit (AFU) over 5 data points.

Data set [9] concerns FXN-deficient cell lines. The experiment in a line: Genomic footprint of FXN-deficient cell lines before and after FXN fusion protein treatment. The data set is classed as cell-based. To be noted: data not shown.
Text: as §1

Where [10] appears, read: Acid and alkaline control: 37° C. for 2 days.
Where [11] appears, read: Acid stress: pH ≤4, at 37° C. for 2 days.
Where [12] appears, read: Alkaline stress: pH ≥10, at 37° C. for 2 days.
Where [13] appears, read: Heat stress: 50° C. for 2 hours.
The mark [14] stands for this setting: Oxidation control: 37° C. for 2 hours.
[15] abbreviates: Oxidation: 0.05% peroxide at 37° C. for 2 hours.
Setting [16] is: Study control: 2-8° C. for 2 hours.
Setting [17] is: Drug substance (DS) control (stored at −80° C.).

For `NC(=O)C1=CN([C@@H]2O[C@H](COP(=O)(O)OP(=O)(O)OC[C@H]3O[C@@H](n4cnc5c(N)ncnc54)[C@H](OP(=O)(O)O)[C@@H]3O)[C@@H](O)[C@H]2O)C=CC1` [NADPH], the “effect on ROS production / redox activity of the FXN fusion protein” value in data set [1] is “significantly diminished ROS production”.

Turning to `NC(=O)C1=CN([C@@H]2O[C@H](COP(=O)(O)OP(=O)(O)OC[C@H]3O[C@@H](n4cnc5c(N)ncnc54)[C@H](O)[C@@H]3O)[C@@H](O)[C@H]2O)C=CC1` [NADH], in [1], the “effect on ROS production / redox activity of the FXN fusion protein” value is recorded as “did not affect the redox activity”.

B1: FXN fusion protein: cell penetrating peptide HIV-TAT linked through a linker to the N-terminus of full length hFXN; amino acid sequence of SEQ ID NO: 12 (protein)
chain: MYGRKKRRQRRRGGMWTLGRRAVAGLLASPSPAQAQTLTRVPRPAELAPLCGRRGLRTDIDATCTPRRASSNQRGLNQIWNVKKQSVYLMNLRKSGTLGHPGSLDETTYERLAEETLDSLAEFFEDLADKPYTFEDYDVSFGSGVLTVKLGGDLGTYVINKQTPNKQIWLSSPSSGPKRYDWTGKNWVYSHDGVSLHELLAAELTKALKTKLDLSSLAYSGKDA
Regarding B1, the “Result (% activity)” value in [2] (setting [10]) was 79.7%; in [2] (setting [11]), 23.7%; in data set [2] (setting [12]), 0.02%; in [2] (setting [13]), 96.9%; in data set [2] (setting [14]), 59.5%; in data set [2] (setting [15]) it was 2.2%. The “Result (% activity)” value came to 100% in [2] (setting [16]); 100.2% in data set [4] (setting [17]); 100% in data set [4] (SPL1: −60° C. for 1 month); 66.4% in data set [4] (SPL2: 2-4° C. for 1 month); 23.4% in [4] (SPL3: 25° C. for 1 month). Further, the Vi entry in data set [2] (setting [10]) is on record as “(1,730 Vi units)”; in data set [2] (setting [11]) it was “(689 Vi units)”; in data set [2] (setting [12]) it was “(0.7 Vi units)”; in [2] (setting [13]), “(2,820 Vi units)”; in data set [2] (setting [14]), “(1,730 Vi units)”; in [2] (setting [15]), “(63 Vi units)”. Besides, the Vi result was “(2,908 Vi units)” in data set [2] (setting [16]); “(1126 Vi units)” in data set [4] (setting [17]); “(1123 Vi units)” in data set [4] (SPL1: −60° C. for 1 month); “(746 Vi units)” in data set [4] (SPL2: 2-4° C. for 1 month); “(263 Vi units)” in data set [4] (SPL3: 25° C. for 1 month). Besides, the “stability of HQ activity to acid stress” value in data set [2] (acid stress) is recorded as “partly susceptible”. In [2] (alkaline stress), the “stability of HQ activity to alkaline stress” value is “susceptible”. Besides, the “stability of HQ activity to heat stress” value in data set [2] (heat stress applied for 2 hours) was “to a large extent, was resistant to heat stress”. In data set [2] (oxidation stress), the “stability of HQ activity to oxidation stress” value is “susceptible”. In addition, the “Mean Vi” value is 5390.0 in [3] (Plate 1, High control (10 µM FXN fusion protein)); 471.0 in [3] (Plate 1, Low control (0.5 μM FXN fusion protein)); 4995.1 in [3] (Plate 2, High control (10 μM FXN fusion protein)); 635.5 in [3] (Plate 2, Low control (0.5 μM FXN fusion protein)); 5192.5 in data set [3] (Plates 1 and 2 combined, High control (10 μM FXN fusion protein)); 553.2 in data set [3] (Plates 1 and 2 combined, Low control (0.5 μM FXN fusion protein)). For the same molecule, the “activity in the HQ Assay after storage” value in data set [4] (storage in conditions other than −60° C. for one month) is recorded as “decreased activity”. Moreover, the “enzymatic activity, as measured by ROS generation over time” value in [5] is listed as “possesses enzymatic activity”. Further, in [6], the “cardiomyopathic phenotype, for example cardiac contractility” value is “measurable improvement in the cardiomyopathic phenotype”. Further, the “lag time to ROS generation” value in data set [7] is recorded as “approximately 2 hours”. The “pH at which activity peaks” value in data set [8] (pH 7.0 to 9.0) is listed as “about 8.5”. Besides, the “superoxide-generating activity (Vi)” value in data set [8] (pH of 7.4 or lower) is recorded as “almost no activity”. The “expression of a set of genes before and after treatment” value in data set [9] is “significant difference in the expression of a set of genes”.
